Results: US20200140868

Biological target: T1, Recombinant FANCE (149-536) wild-type, Q9HB96
T1 chain: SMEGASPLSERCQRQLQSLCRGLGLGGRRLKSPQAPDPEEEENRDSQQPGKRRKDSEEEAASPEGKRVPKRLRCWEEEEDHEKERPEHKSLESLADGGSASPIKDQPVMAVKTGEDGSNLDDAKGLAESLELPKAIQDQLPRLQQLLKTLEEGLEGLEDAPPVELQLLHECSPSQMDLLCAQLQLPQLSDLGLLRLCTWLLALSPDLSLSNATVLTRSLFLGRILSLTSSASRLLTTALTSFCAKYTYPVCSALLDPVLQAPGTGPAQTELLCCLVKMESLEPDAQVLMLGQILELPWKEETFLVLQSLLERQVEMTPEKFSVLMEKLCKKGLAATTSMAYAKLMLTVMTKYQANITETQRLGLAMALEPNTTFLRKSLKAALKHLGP

B1: purified recombinant Chk1 (Upstate Technology) (protein)
chain: MAVPFVEDWDLVQTLGEGAYGEVQLAVNRVTEEAVAVKIVDMKRAVDCPENIKKEICINKMLNHENVVKFYGHRREGNIQYLFLEYCSGGELFDRIEPDIGMPEPDAQRFFHQLMAGVVYLHGIGITHRDIKPENLLLDERDNLKISDFGLATVFRYNNRERLLNKMCGTLPYVAPELLKRREFHAEPVDVWSCGIVLTAMLAGELPWDQPSDSCQEYSDWKEKKTYLNPWKKIDSAPLALLHKILVENPSARITIPDIKKDRWYNKPLKKGAKRPRVTSGGVSESPSGFSKHIQSNLDFSPVNSASSEENVKYSSSQPEPRTGLSLWDTSPSYIDKLVQGISFSQPTCPDHMLLNSQLLGTPGSSQNPWQRLVKRMTRFFTKLDADKSYQCLKETCEKLGYQWKKSCMNQVTISTTDRRNNKLIFKVNLLEMDDKILVDFRLSKGDGLEFKRHFLKIKGKLIDIVSSQKIWLPAT
in vitro kinase assay, Western blot with anti-pT346-FANCE and anti-pS374-FANCE: the recombinant FANCE (rFANCEwt) protein phosphorylated by Chk1 in vitro
